Measured values: patent US20110263485A1 (University of California, published 2011)

B1: C37-linker-CD4M33C1F23 (designed binder)
chain: HTTWMEWDREINNYTSLIHSLIEESQNQQEKNEQELLSSSGGGGSGGGGSSSSCNLHFCQLRCKSLGLLGKCAGSFCACV

What was measured:
Test in all cases: cell-based or functional assay
[1] = biological target: HIV-1 HXB2 env (X4) (gp120 and gp41) (HIV-1 strain HXB2, UniProt P04578 33-856; P04578 33-856)
[2] = biological target: HIV-1 ADA (R5) env (gp120 and gp41) (HIV-1 strain ADA)
[3] = biological target: HIV-1 ADA (R5) env (gp120 and gp41) (HIV-1 strain ADA); remark: listed apart in the source
[4] = biological target: HIV-1 JRFL (R5) env (gp120 and gp41) (HIV-1 strain JRFL)

Binder | X4 fusion assay IC50 [1] [nM] | R5 fusion assay IC50 [2] [nM] | R5 fusion with competition IC50 [2] [nM] | R5 fusion with wash-out on ADA cells IC50 [2] [nM] | R5 fusion with wash-out on P5L cells IC50 [2] [nM] | Inhibition of HIV single round pseudovirus in TZM-bl cells, ADA (R5), IC50 [3] [nM] | Inhibition of HIV single round pseudovirus in TZM-bl cells, ADA (R5), IC90 [3] [nM] | Inhibition of HIV single round pseudovirus in TZM-bl cells, JRFL (R5), IC50 [4] [nM] | Inhibition of HIV single round pseudovirus in TZM-bl cells, JRFL (R5), IC90 [4] [nM]
B1 | 2.3 | 6.83 | 7.78 | 77.8 | 561 | 2.33 | 17.3 | 2.25 | 24.3
Ac-HTTWMEWDREINNYTSLIHSLIEESQNLQEKNEQELL-NH2 [C37(Q652L) (N-acetylated, C-term amidated)] | – | 28.2 | – | – | – | 114 | – | – | –
